Publication PMC4248295

Molecular target: T1, MSL2 CXC domain (Drosophila melanogaster, UniProt P50534 520-570, C560G)
T1 sequence: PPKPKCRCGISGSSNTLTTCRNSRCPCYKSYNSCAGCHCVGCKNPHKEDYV
Experiment: crystal structure

B1: (GC)6 (12 bp) (dsDNA)
DNA 1: GCGCGCGCGCGC
DNA 2: GCGCGCGCGCGC
B1: binds.
